Patent publication US20190284258

System: T1, Haemadipsa sylvestris antithrombotic peptide Sylvestin
T1 sequence: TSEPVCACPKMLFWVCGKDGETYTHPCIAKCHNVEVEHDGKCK

Substance	enzyme kinetics, chromogenic substrate, OD 405 nm	enzyme kinetics, chromogenic substrate, OD 405 nm; sample 10 µM
FXIIa	it can inhibit FXIIa and kallikrein	
FXa		had no inhibitory effect on thrombin, plasminogen FXa or the like
kallikrein	it can inhibit FXIIa and kallikrein	
plasminogen		had no inhibitory effect on thrombin, plasminogen FXa or the like
thrombin		had no inhibitory effect on thrombin, plasminogen FXa or the like
